Data: PMC3567102

Target: T1, wild-type Mtd (major tropism determinant), Mtd-GST fusion protein (Bordetella bronchiseptica bacteriophage), Q775D6
T1 chain: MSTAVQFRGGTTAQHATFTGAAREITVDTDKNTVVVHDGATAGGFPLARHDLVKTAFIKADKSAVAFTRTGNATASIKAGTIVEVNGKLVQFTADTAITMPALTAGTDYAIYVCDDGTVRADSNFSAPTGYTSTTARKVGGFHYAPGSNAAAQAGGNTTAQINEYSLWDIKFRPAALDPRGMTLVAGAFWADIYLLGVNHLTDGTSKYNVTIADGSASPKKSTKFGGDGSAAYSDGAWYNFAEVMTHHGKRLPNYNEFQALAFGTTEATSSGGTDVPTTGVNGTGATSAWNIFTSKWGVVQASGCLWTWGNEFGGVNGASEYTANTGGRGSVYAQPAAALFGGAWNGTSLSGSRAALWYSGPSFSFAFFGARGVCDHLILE
Assay: SEC; size exclusion chromatography of purified Mtd-GST fusion proteins after dialysis into PBS
Conditions: remark: other sources report otherwise

B1: wild-type Mtd (major tropism determinant), Mtd-GST fusion protein, Q775D6 1-381 (natural protein)
chain: T1 chain
- stoichiometry N: 6
